Measured values taken from PMC12392869 (Advanced Materials (Deerfield Beach, Fla.), 2025).

Molecular target: T1, integrin α5β1 on cells (human (endogenous in K562 and MCF10A), UniProt P08648 42-1049; P05556 21-798)
T1 construct: integrin α5 subunit, endogenous; integrin β1 subunit, endogenous; also called intact α5β1; cellular α5β1; source: endogenous, on K562 cells (flow cytometry) and on MCF10A Cas-mScarlet cells (TIRF microscopy)
Assay: flow cytometry on cells; competition: unlabelled competitor titrated against 5 nM CF647-NeoNectin on K562 cells, L15 medium with 1% BSA, 2 h at room temperature; KD = EC50/(1 + CL/KD,L)
Details: one partner purified

T1 sequence (P08648 42-1049, chain 1 of 2): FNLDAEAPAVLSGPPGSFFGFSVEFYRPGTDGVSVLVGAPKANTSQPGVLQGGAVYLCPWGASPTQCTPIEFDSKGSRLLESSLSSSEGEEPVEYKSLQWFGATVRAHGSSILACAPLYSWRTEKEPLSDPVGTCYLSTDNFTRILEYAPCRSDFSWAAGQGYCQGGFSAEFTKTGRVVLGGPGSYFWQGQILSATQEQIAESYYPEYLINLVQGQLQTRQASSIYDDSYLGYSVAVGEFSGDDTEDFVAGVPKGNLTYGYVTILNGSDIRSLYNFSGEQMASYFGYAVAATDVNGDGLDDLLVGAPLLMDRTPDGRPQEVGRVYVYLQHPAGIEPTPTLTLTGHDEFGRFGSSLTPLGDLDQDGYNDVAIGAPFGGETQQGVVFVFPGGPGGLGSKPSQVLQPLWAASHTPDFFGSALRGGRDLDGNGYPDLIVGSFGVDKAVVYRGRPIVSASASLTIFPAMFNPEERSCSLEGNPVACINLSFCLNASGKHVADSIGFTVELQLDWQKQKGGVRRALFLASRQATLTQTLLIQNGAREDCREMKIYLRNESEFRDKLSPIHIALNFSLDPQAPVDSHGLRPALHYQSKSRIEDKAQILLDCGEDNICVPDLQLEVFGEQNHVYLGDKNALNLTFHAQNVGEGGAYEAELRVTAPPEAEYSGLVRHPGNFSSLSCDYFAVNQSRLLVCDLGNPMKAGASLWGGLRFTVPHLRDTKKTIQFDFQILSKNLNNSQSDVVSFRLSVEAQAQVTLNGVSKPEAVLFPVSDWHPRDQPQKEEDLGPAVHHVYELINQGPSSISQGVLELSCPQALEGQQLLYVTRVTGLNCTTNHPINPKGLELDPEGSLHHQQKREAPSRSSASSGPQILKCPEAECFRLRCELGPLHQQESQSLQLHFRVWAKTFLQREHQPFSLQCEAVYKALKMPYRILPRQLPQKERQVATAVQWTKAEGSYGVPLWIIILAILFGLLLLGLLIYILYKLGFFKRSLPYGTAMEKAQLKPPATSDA
T1 sequence (P05556 21-798, chain 2 of 2): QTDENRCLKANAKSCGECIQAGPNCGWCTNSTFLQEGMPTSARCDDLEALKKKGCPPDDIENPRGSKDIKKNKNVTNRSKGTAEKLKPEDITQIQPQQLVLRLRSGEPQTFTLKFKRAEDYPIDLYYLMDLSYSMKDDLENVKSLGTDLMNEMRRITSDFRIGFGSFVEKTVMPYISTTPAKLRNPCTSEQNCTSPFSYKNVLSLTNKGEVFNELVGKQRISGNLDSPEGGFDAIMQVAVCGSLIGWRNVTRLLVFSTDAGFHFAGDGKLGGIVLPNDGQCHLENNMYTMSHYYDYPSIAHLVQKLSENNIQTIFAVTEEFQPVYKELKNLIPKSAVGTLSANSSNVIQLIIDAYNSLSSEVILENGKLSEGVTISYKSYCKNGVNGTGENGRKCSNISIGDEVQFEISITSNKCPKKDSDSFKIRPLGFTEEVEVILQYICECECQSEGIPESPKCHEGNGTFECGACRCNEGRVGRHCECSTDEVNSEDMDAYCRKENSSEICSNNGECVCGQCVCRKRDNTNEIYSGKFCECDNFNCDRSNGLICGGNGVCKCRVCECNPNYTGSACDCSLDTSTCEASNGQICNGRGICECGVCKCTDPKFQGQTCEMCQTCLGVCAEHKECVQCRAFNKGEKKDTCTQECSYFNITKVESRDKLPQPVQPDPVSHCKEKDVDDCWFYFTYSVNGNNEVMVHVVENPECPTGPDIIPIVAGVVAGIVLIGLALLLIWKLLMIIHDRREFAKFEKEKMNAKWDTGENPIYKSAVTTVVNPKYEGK

Kd: 150 µM
B1: RGD peptide (GRRGDGATGH) (peptide)
peptide: GRRGDGATGH
notes: source: synthetic peptide
